Test results reported in the supplement of paper PMC12764529.
± gives the half width of the 95% confidence interval.

Legend:
[1] = folding stability dG unfold from trypsin proteolysis; higher = more stable
Outline: (§1)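 How resistant each design was to proteolysis was captured as K50, inferred by Bayesian fitting of sequencing counts. Unfolding free energy was then derived relative to a sequence-predicted unfolded-state K50 and a shared folded-state K50, per protease or combined. Digestion used trypsin and chymotrypsin at 11 threefold-diluted concentrations plus a no-protease condition, on mini-proteins under 80 residues without cysteine in a PA-tagged cDNA display construct. Designs were kept only when AlphaFold2 dimer inter-PAE was above 15.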

[2] = folding stability dG unfold from chymotrypsin proteolysis; higher = more stable
Outline: as §1

[3] = folding stability dG unfold (combined trypsin and chymotrypsin); higher = more stable
Outline: as §1

Sequence	folding stability dG unfold [1]	folding stability dG unfold [2]	folding stability dG unfold [3]
SAGGSAGGSMFEEEEIEIERPDGTTIKVKVEILPDGTRVLTITDPKEGKTTTVTLSPNEEILLSAGGSAGGS [r20_45_JUSTAS]	2.15 ± 0.12 kcal/mol	0.464 ± 0.049 kcal/mol	1.6 ± 0.12 kcal/mol
SAGGSAGGSMHEDEQLPYEAAEKYTILKLKEENEKLNLPPIPIKKIEIEKDPETGLVRVKVYGSAGGSAGGS [r12_583_TrMRF]	-0.788 ± 0.42 kcal/mol	-0.579 ± 0.6 kcal/mol	-0.552 ± 0.39 kcal/mol
SAGGSAGGSMIEYPELTLEELKAKFEAEGYTVEEEPPTNVVTLTPPDGTPITVTVTPVPESLLSAGGSAGGS [r12_211_JUSTAS]	1.21 ± 0.043 kcal/mol	0.352 ± 0.013 kcal/mol	0.803 ± 0.057 kcal/mol
SAGGSAGGSMIFFPNITKEEFEEIFRKKGYKVKRYPSTNVIEVTGKDGKPIKAVVIPVSPEEFSAGGSAGGS [r12_211_TrMRF]	0.677 ± 0.058 kcal/mol	0.618 ± 0.13 kcal/mol	0.668 ± 0.088 kcal/mol
SAGGSAGGSMIKIKVKSKEDVEALIKELEKAGFKVKKVEEVDGKVYFTLENGEKIEIEVVPPESAGGSAGGS [r20_93_TrROS_Hall]	4.24 ± 0.48 kcal/mol	4.94 ± 0.12 kcal/mol	5.05 ± 0.34 kcal/mol
SAGGSAGGSMIKVKITYPNGEEKTIEIEAETEEEAEEAAKKLAEELGKDVKVEVEKVSPEELKSAGGSAGGS [r12_385_TrROS_Hall]	1.64 ± 0.075 kcal/mol	1.22 ± 0.034 kcal/mol	1.45 ± 0.073 kcal/mol
SAGGSAGGSMKITKIEVEENEDGTLTVRLELEFVDPETKETYRVELEITVSKEELEKLLEALKSAGGSAGGS [r12_691_TrROS_Hall]	3.03 ± 0.12 kcal/mol	4.09 ± 0.21 kcal/mol	3.9 ± 0.23 kcal/mol
SAGGSAGGSMKITKTEEGVYLVEFTLPDGTPLVIPFPTDDPFLTEEQAVEIAKPIAAAFAAAGSAGGSAGGS [r12_642_TrMRF]	0.84 ± 0.016 kcal/mol	1.35 ± 0.038 kcal/mol	1.22 ± 0.044 kcal/mol
SAGGSAGGSMKKLKITFPPGMTEEELKKKIEELAKKLNLEVVKIKSIEYDKENKEVTITVEIKSAGGSAGGS [r12_131_TrROS_Hall]	4.2 ± 0.17 kcal/mol	3.77 ± 0.059 kcal/mol	3.87 ± 0.088 kcal/mol
SAGGSAGGSMKRLPDGNLVVKLNNGSTWSVITIPVSPDESEEEIKQRLKELFGPNYPEYDISESAGGSAGGS [r12_300_JUSTAS]	1.08 ± 0.011 kcal/mol	0.917 ± 0.09 kcal/mol	1.04 ± 0.058 kcal/mol
SAGGSAGGSMKTVEIELVNKETGKKVTITVNDGKVTIRITNPDGEEKELEFPSLEEALEALLSSAGGSAGGS [r12_511_TrROS_Hall]	2.45 ± 0.14 kcal/mol	1.93 ± 0.19 kcal/mol	2.19 ± 0.2 kcal/mol
SAGGSAGGSMKTYTLPNGLRVQLVRVDKKTKTITLKVFDKNGELVEEIEIKVDEPVELLVVYPSAGGSAGGS [r12_960_TrROS_Hall]	2.09 ± 0.061 kcal/mol	2.69 ± 0.05 kcal/mol	2.45 ± 0.15 kcal/mol
SAGGSAGGSMKVSPASRSEFDGSRVITITVTKEGTGTTTDITIPFSPDEPDVDEVAKAIAESLSAGGSAGGS [r12_415_JUSTAS]	0.0886 ± 0.12 kcal/mol	1.12 ± 0.023 kcal/mol	0.838 ± 0.091 kcal/mol
SAGGSAGGSMKVVKILSIETKAEKDEEVLTIPVLDPANGKVITLTVSPEVAKTITTDDEIELLSAGGSAGGS [r12_382_JUSTAS]	0.177 ± 0.14 kcal/mol	0.517 ± 0.12 kcal/mol	0.47 ± 0.14 kcal/mol
SAGGSAGGSMKVVVTAKLPGGEVLQKTIPVDESVLKKMSKEEVIELLKKEGLPENVEIKFEPKSAGGSAGGS [r12_742_JUSTAS]	1.34 ± 0.067 kcal/mol	2.17 ± 0.15 kcal/mol	1.81 ± 0.24 kcal/mol
SAGGSAGGSMKYLVTFPEGGPVPLPDGTSVALAPGAVLELETEEEAEALKALNPGRPVVITPVSAGGSAGGS [r12_987_JUSTAS]	1.51 ± 0.037 kcal/mol	1.35 ± 0.03 kcal/mol	1.47 ± 0.05 kcal/mol

Sequence	folding stability dG unfold [1]	folding stability dG unfold [2]	folding stability dG unfold [3]
SAGGSAGGSMKYYKTKDGKIVKAPPIETVKLKLKLEINGKKIEIEIEMSKEEIDKLLKELEKKSAGGSAGGS [r20_148_TrROS_Hall]	0.717 ± 0.051 kcal/mol	1.27 ± 0.17 kcal/mol	1.05 ± 0.13 kcal/mol
SAGGSAGGSMLPADTKVIKITVESTLPDGSTTTHTVTVPSSVPLEAVKEQLPPGATITEVVLASAGGSAGGS [r12_597_JUSTAS]	1.44 ± 0.064 kcal/mol	0.931 ± 0.011 kcal/mol	1.16 ± 0.059 kcal/mol
SAGGSAGGSMLPLPIESIEVVPRRAPGGKTYYVAFIRLKADGKPLVIEFEADNPGEALEKLEASAGGSAGGS [r20_238_TrMRF]	1.14 ± 0.046 kcal/mol	1.46 ± 0.11 kcal/mol	1.34 ± 0.14 kcal/mol
SAGGSAGGSMLTVKITLPNGEKIEIEIEAESEEEAKAAAEKLLEALREAGVSLEDVKVEVVEPSAGGSAGGS [r12_295_TrROS_Hall]	4.46 ± 0.67 kcal/mol	2.92 ± 0.11 kcal/mol	3.66 ± 0.29 kcal/mol
SAGGSAGGSMNVPPGESVTVTVPPGTGLEWLRAQLPSSRTWDFATFVSENPSPPVTTYEITVGSAGGSAGGS [r12_469_JUSTAS]	1.16 ± 0.078 kcal/mol	2 ± 0.077 kcal/mol	1.76 ± 0.11 kcal/mol
SAGGSAGGSMPKKTYEFEIEYEDPEEAVEKAIREFEEETGEKIEEVEVEYDPEKGIVKITLVKSAGGSAGGS [r12_265_JUSTAS]	0.921 ± 0.066 kcal/mol	1.44 ± 0.088 kcal/mol	1.27 ± 0.21 kcal/mol
SAGGSAGGSMPKTYSFKVKSKEEIVKLIEELKKLGAKKVEVKELPDGYELYVEVGDSVIKVYSSAGGSAGGS [r12_846_TrMRF]	1.31 ± 0.065 kcal/mol	1.1 ± 0.16 kcal/mol	1.24 ± 0.13 kcal/mol
SAGGSAGGSMPPVVLEVKDPESGKVTTLFFFPPTGEALVVPPDGSVFYEPFTSLDELVERLAGSAGGSAGGS [r12_511_TrMRF]	1.4 ± 0.055 kcal/mol	1.71 ± 0.051 kcal/mol	1.57 ± 0.091 kcal/mol
SAGGSAGGSMPVITVDPSIKEFKDEKGNKYLLTPVTVTLPNGVPVTVVYTTDPSTGKTTPATSGSAGGSAGG [r6_298_JUSTAS]	0.671 ± 0.059 kcal/mol	0.481 ± 0.12 kcal/mol	0.62 ± 0.1 kcal/mol
SAGGSAGGSMPVLVSESPVGTLPDGTKVTRVTYRFPNGEILTETVVEPGPGPPTPENVALTLASAGGSAGGS [r12_775_JUSTAS]	2.04 ± 0.18 kcal/mol	1.19 ± 0.23 kcal/mol	1.6 ± 0.29 kcal/mol
SAGGSAGGSMRFPPGQKIEIEEWKHNPNGGNYQVSIRFKDGKKKTFTSPEDIDRLIKAGHVKISAGGSAGGS [r12_455_TrROS]	-0.0362 ± 0.26 kcal/mol	1.33 ± 0.19 kcal/mol	0.822 ± 0.21 kcal/mol
SAGGSAGGSMRIKFEFKIGDKWVEEEIPADLSQLPLSEIKKKHPKAEYKIEIEDEEGNWTPLLSAGGSAGGS [r12_540_JUSTAS]	0.262 ± 0.11 kcal/mol	1.04 ± 0.1 kcal/mol	0.767 ± 0.12 kcal/mol
SAGGSAGGSMRLDLDDIKRVEREPTPNGMRVYEIKLKGHKLPIRYHDNKIEISPEFKDLLKDISAGGSAGGS [r20_92_TrROS]	-0.382 ± 0.19 kcal/mol	-0.483 ± 0.23 kcal/mol	-0.253 ± 0.15 kcal/mol
SAGGSAGGSMSEELLAEGPVRIRVRVRNKDGSVEEIEVEAGEEIELPEELKNQDVEIVSIEPVSAGGSAGGS [r12_161_TrROS_Hall]	0.838 ± 0.058 kcal/mol	2.15 ± 0.088 kcal/mol	1.74 ± 0.089 kcal/mol
SAGGSAGGSMSPEEAKKLAEELAKKLGLEKVEIVEIKVEVDEETNEIKVTIYIRGKDGKWYKLSAGGSAGGS [r12_508_TrROS_Hall]	3.48 ± 0.18 kcal/mol	4.2 ± 0.07 kcal/mol	3.96 ± 0.074 kcal/mol
